{"source": "paper doi:10.1101/2024.09.03.610704", "key": {"[1]": {"biological_target": "mitochondrial respiratory complex IV monomer (Chlamydomonas reinhardtii)", "assay": "cryo-EM structure"}, "[2]": {"biological_target": "mitochondrial respiratory complex III dimer (Chlamydomonas reinhardtii)", "assay": "cryo-EM structure"}}}
{"substance": "cytochrome c (from UniProt P15451 1-112) (natural protein)", "values": [{"measurement": "stoichiometry N (cyt. c per complex IV monomer)", "setting": "[1]", "result": 1}, {"measurement": "stoichiometry N (cyt. c per complex III dimer)", "setting": "[2]", "result": 2}]}
